Data on four molecules can be found in patent publication US20240009241A1 (published 2024).

In experiment [1] the target is T1, EGFR L858R peptide on HLA-A*33:03 (human).
T1 peptide: HVKITDFGR
The experiment can be described thus: multimer staining.

Experiment [2] has as its target T2, EGFR L858R peptide on HLA-A*33:01 (human).
T2 peptide: HVKITDFGR
The experiment can be described thus: killing.

B1: EGFRA33 TCRA33-37-3 (TCR, V domains shown)
Valpha: AQKITQTQPGMFVQEKEAVTLDCTYDTSDQSYGLFWYKQPSSGEMIFLIYQGSYDEQNATEGRYSLNFQKARKSANLVISASQLGDSAMYFCAMREVFGNEKLTFGTGTRLTIIP
Vbeta: EEVAQTPKHLVRGEGQKAKLYCAPIKGHSYVFWYQQVLKNEFKFLISFQNENVFDETGMPKGRFSAKCLPNSPCSLEIQATKLEDSAVYFCASSHRSWKGGDTQPQHFGDGTRLSIL
With B1, the binding result in experiment [1] is on record as “recognises”.

B2: EGFRA33 TCRA33-37-4 (TCR, V domains shown)
Valpha: AQKITQTQPGMFVQEKEAVTLDCTYDTSDPSYGLFWYKQPSSGEMIFLIYQGSYDQQNATEGRYSLNFQKARKSANLVISASQLGDSAMYFCAMRSGHLSNFGNEKLTFGTGTRLTIIP
Vbeta: B1 Vbeta
Regarding B2, in experiment [1], the binding result was “recognises”.

B3: EGFRA33 TCRA33-32H (TCR, V domains shown)
Valpha: QKITQTQPGMFVQEKEAVTLDCTYDTSDQSYGLFWYKQPSSGEMIFLIYQGSYDEQNATEGRYSLNFQKARKSANLVISASQLGDSAMYFCAMREVFGNEKLTFGTGTRLTIIP
Vbeta: EEVAQTPKHLVRGEGQKAKLYCAPIKGHSYVFWYQQVLKNEFKFLISFQNENVFDETGMPKERFSAKCLPNSPCSLEIQATKLEDSAVYFCASSPPPSNTYNEQFFGPGTRLTVL
In the case of B3, the binding result in experiment [2] and in experiment [1] was “recognises” throughout.

B4: EGFRA33 TCR33-32L (TCR, V domains shown)
Valpha: not shown
Vbeta: GVIQSPRHEVTEMGQEVTLRCKPISGHNSLFWYRQTMMRGLELLIYFNNNVPIDDSGMPEDRFSAKMPNASFSTLKIQPSEPRDSAVYFCASRAGTGEVNEQFFGPGTRLTVL
Consider B4, for which the binding result in experiment [1] is given as “recognises”.
